Laboratory results: the nanobody polyreactivity screen of Harvey et al. (2022)

assay: yeast display, Sf9 membrane polyspecificity reagent, FACS + sequencing; frameworks hold sequencing errors
In short: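 A nanobody's polyreactivity label depends on the gate it was sorted from. Yeast display cells were stained with 10% biotinylated, detergent-solubilized Sf9 membrane reagent for 1 hour at 4 °C, enriched on streptavidin microbeads and sorted by FACS. The low and high (top ~1%) gates were set on anti-HA fluorescence for expression and streptavidin fluorescence for reagent binding.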

Sequence | polyreactivity (PSR sort gate)
QVQLVESGGGLVQAGGSLRLSCAASGRIFYSYAMGGYRQAPGKERELVATITNGGSTNYADSVKGRFTISRDNAKNTVYLQMNSLKPEDPAVYYCATDQFTRSVDFDYWGQGTQVTVSS | high polyreactivity
QVQLVESGGGLVQAGGSLRLSCAASGSTFVRNAMGWYRQAPGKERELVAAIRWRSGSTYYADSVKGRFTISRDNAKNTVYFQMNSLKPEDTAVYYCAVKGLGKMNYWGQGTQVTVSS | high polyreactivity
QVQLVESGGGLVQAGGSLRLSCAASGIIFTYSAMGWYRQAPGKERELVAAISRRGGTTYYADSVKGRFTISRDNAKNTVYLQMNSLKPEDTAVYYCAKKWGWFPVYYWGQGTQVTVSS | high polyreactivity
QVELVESGGGLVQAGGSLRLSCAASGRTFTPYAMGWYRQAPGKEREFVAAISIVGRTKYADSVKGRFTISRDNAKNTVYLQMNSLKPEDTAVYYCNAQDSRDRKFYWGYTRGHWGQGTQVTVSS | low polyreactivity
QVQLVESGGGLVQAGGSLRLSCAASGSTFYYNAMGWYRQAPGKERELVARISRSGGSTYADSVKGRFTISRDNAKNTVYLQMNSLIPEDTAVYYCNADAYGTPEFTSYAVRYDYWGQGTQVTVSS | low polyreactivity
QVQLVESGGGLVQAGGSLRLSCAASGRILKVYAMGWSRQAPGKERELVAAITSGSSTYADSVKGRFTISRDNAKNTVYLQMNSLKPEDTAVYYCAAVFWVDILPGDYWGQGTQVTVSS | low polyreactivity
QVQLVESGGGLVQAGGRLRLICAASGFNFKFYALGWYRQAPGKERELVAAITASSGRTYYADSVKGRFTISRDNAKNTVFLQMNSLKPEDTAVYYCAALGITYGRYDYWGQGTQVTVSS | high polyreactivity
QVQLVESGGGLVQAGGSLRLSCAASGSIRYYVKGWYRQAPGKERELVAGINWSGGSTYYADSVKGRFTISRDNAKNTVYLQMNSLKPEDTAVYYCAARFVGVRDGYYYWGQGTQVTLSS | high polyreactivity
QVQLVESGGGLVQAGGSLRLSCAASGISDWYAMGWYRQAPGKERELVASITDGGSTKYADSVKGRFTISRDNAKNTVYLQMNSLKPEDTAVYYCNTTFRVYFSRSWWSRYYYWGLGTQVTVSS | low polyreactivity
QVQLVESGGGLVQAGGSLRLSCAASGRIFGIYAMGWYRQAPGKERELVAAINSGDSTYADSVKGRFTISRDNAKNTVYLQMNSLKPEDTAVYYCAAEESTSSWSINDYWGQGTQVTVSS | low polyreactivity
QVQLVESGGGLVQAGGSLRLSCAASGRIFSYYDMGWYRQAPGKERELVARISYSGDSTYYADSVKGRFTISRDNAKNTVYLQMNSLKPEDTAVYYCAADSITSKNQGLDYDYWGQGTQVTVSS | low polyreactivity
QVQLVESGGGLDQAGGSLRLSCAAYGSTFTYQSMGWYRQATGKERELVAAITWSSDITYYADSVKGRFTISRDNAKSTVYLQMNSLKPEDTAVYYCAADGVTRDYVYWGQGTQVTVSS | low polyreactivity
QVQLVESGGGLVQAGGSLRLSCAASGRTFVGYVMGWYRQAPGKERDLVAAITSRGGRTYYADSLKGRFTISRDNAKNTVYLQMNSLNPEDTGVYYCYAAHGSRAFFGGYDYWGQGTEVTVSS | high polyreactivity
QVQLVESGGGLVQAGGSLRLSCAASGSTSDEYAMGWYRPAPGKERELVASISSDDTSTHYADSVKGRFTISRDNAKNTVYLQMNSLKPEDTAVYYCAARNTPAYIDYNYWGQGTQVTVSS | low polyreactivity
QLQLQESGGGLVQAGVCLSCTASGTIFGQGDMGWYRQAPGKERELVATINDGASTYYADSVKGRFTISRDKAKNTVYLQKNSLKPDDNAVYYCAVFTDITTYFGYWGQGTQVTVSS | low polyreactivity
QVQLVESGGGLVQAGGSLRLSCPASGYIFYYNAMGWYRQAPGKERELVAAITSDDSTYYADSVKGRFTISRDNANNTVYLQMNSLKQEDTAVYYCNSVRYGHWYDYWGQGTQVTVSS | low polyreactivity
QVQLVESGGGLVQAGGSLRLSCAASGSTFTYYAMGWYRQSPGKERELVAAISWRGGSTYYADSVKGRFTISRDNAKNTVYLQMNSLKPEDNAVYYCAASRTFYRAVTQTGSPMDYWGQGTQVTVSS | high polyreactivity
QVQLVESGGGLVQAGGSLRLSCAASGSIFRINAMGWYITAPGKERELVAAISWSGGSTYYADSVKGRFTISRDNAKNTVYLQMNSLKPEDTAVYYCAAVVSKSSFDYWGQGTQVTVSS | low polyreactivity
QVQLVESGGGLVQAGGSLRLSCAASGLTFDYYAMGWYRQAPGKERELVAAISISGDRTYYADSVKGRFTISRDNAKNTVYLQMNSLKPEDTAVYYCNARYPGSFRDDYWGQGTQVTVSS | high polyreactivity
QVQLVESGGGLVQAGGSLRLSCAASGIIFAYYAMGWYRQAPGKERELVASITNTGSTYYADSVKGRFTISRDNAKNTVYLQMNSLKPEDTAVYFCNAVLSSNTKWRYPGDYLGQGTQVTVSS | low polyreactivity
QVQLVESGGGLVQAGGSLRLSCAATGNIFADYAKGWYRQAPGKERELVAAITWSGDDTYYADSVKGRFTISRDNAKNTVYLQMNSLKPEDTAVYYCAAGYWRTSVDFDYWGQCTQVTVSS | low polyreactivity

Sequence | polyreactivity (PSR sort gate)
QVQLVDSRGGLVQAGGSLRLSCAASGSIFSYYAMGWYRQAPGKEMELVAAITSSDGSTYYPDSVKGRFTISRDNAKNTVYLQINSLKPEDTAVYDCKAVRKYWLLGRYDYWGQGTQVTVSS | high polyreactivity
QFQLVESGGGLVEAGGSLRLSCAASGFTFSWYVMGWYRPAPGKERELVATITNRGGSTYYADSVKGRFTISRDNAKNTVYIQMKSQKPEDTAVYYCAARKKGSRVGYDYWGEGTQVTVSS | high polyreactivity
QVQLVESGGGLVQAGGSLRLSCAASGRIFVDYAMGWYRQAPGKERELVAAITRSGDRTYYADSVKGRFTISRDNAKNTVYLQMNSLKPEDTAVYYCATVYPGYVWGQGTQVTVSS | low polyreactivity
QVQLVESGGGLVQAGGSLRLSCAASGRTFPGYAMGWYRQAPGKERELVAAISNSGGRTYYADSVKGRFTISRDNAKNTVYLQMNSLKPEDTAVYYCNALGRVRYSPRYGYDYWGQGTQVTVSS | high polyreactivity
QVQLVESGGGLVQAGGSLRLSCAASGRIFGGYAMGWYRQAPGKERELVAAIRDSGRTYYADSVKGRFTISRDNAKNTVYLQMNSLKPEDTAVYYCAADAHSSYSPFRWYDYWGQGTQVTVSS | low polyreactivity
QVQLVESGAGLVHAGGSLRLSCAASGSTFSPYAMGWYRQAPGKESELVAAITSSGGSTYYADSVKGRFTISRDNAKNTVYLQMISLKPEDTALYYCAAVGYYTSTYDLYDYYYWGQGTHVTVSS | low polyreactivity
QVQLVESGVGLVQAGGSLRLSCAASGFTFRRYAMGWYRQAPGKERELVAAITSSGGNTYYADSVKGRFTISRDNAKNTVYLQMNSLKPEDTAVYYCAKRAFYSSSYDYWGQGTQVSVSS | high polyreactivity
QVQLVESGGGLVQAARTLRISCAASGYIFQYNSMRWYRPAPGKERELVAPSRYRGTSTYYADSVKGRFTISRDNAKNTDYSQMNRLKPEDTAVYYCAADSVQGRGFFGYGYWGQGTHVTVSS | high polyreactivity
QVQLVESGGGLVQAGGSLRLSCAASGSIFTTYTMASYRQAPGKERELVAAISSSGVRTYYADSVKGRFTISRDNAKNTVYLQMNSLKPEDTAVYYCAARVGKYAEHRYNYWGQGTQVTVSS | high polyreactivity
QVQLVESGGGLVQAGGSLRLSCAASGSTFRTYAMGWYRQAPGKERELVAAISWSGGITYDADSVKGRFTISRDNAKNTVYLQMNSLKPEDTAVYFCDARLASWPLTYDFQWYEYWGQGTQVTVSS | low polyreactivity
QVHLVESGGGLVQAGGRLRLSCAASGGTFYYNAMGRYRHATGKERELVAGITQSGGNTYYADSVKGRFTISRDNAKNTVYLHMNSLKPEDTVVYYCAARIRGTWKYGYWGQGTQVTVSS | low polyreactivity
QVQLVESGGGLVQAGGSIRLICAASGSIFRLYAKGWYRQAPGKEREFVAAISSRGGSTYYADSVKGRFTISRDKAKNTVYLEMNSLKPEDSAVDYCAVYGYHEGGYWGQGTQVTVSS | high polyreactivity
QVQLVESGGGLVQAGGSLRLSCAASGFIFFYAMGWYRQAPGKERELVAAISSRGGSTYYADSVKGRFTISRDNAKNTVYLQMNSLKPEDTAVYYCAALLWSAESDYWGQGTQVTVSS | high polyreactivity
QVQLVESGGGLVQAGGCLRVSCAASGNICVIYAMGGDRKAPGKERELLAAINWNSGRTYYADSVKGRFTISRDNAKNTVYLQMNSLKPEDTAVYYCAARTWGFGYPEFGYWGQGTQVTVSS | high polyreactivity
QVQLVESGGGLVQAGGSLRLSCAASGRIIYNNAMGWSRQAPGTERELVAAISIGGITYYADSVKGRFTISRDNAKNTVYLQMNSLKPEDTAVYYCAALNTGYRTRRLGRDYWGQGTQVTVSS | low polyreactivity
QVQLVESGGGLVHAGGSLRLSCAASGFTFVFYVMGWYRQAPGQERELVAGISGRGASTYYADSVKGRFTISRDNAKNTVYLQMNSLIPEDTAVYYCNAVHWGGTYWGLDYWGQGTQVTVSS | low polyreactivity
QVQLVESGGGLVQAGGSLRLSCAASGRIFGYYTMGWYRQAPGKEREFVAAISYRGGSTYYADSVKGRFTISRDNAKNTVYLQKNSLKPEDTAVYYCNARKSYYTVRSYDSWGQGTQVTVSS | high polyreactivity
QVQLVESGGGLVQAGGSHRLSCAASGSTFWRYAMGWYRQAPGKERELVAAITRRGSSTYYADSVKGRFTISRDNAKNTVYLQMNSLKPEDTAVYYCAREPYPYIRTYILGNYWGQGTQVTVSS | high polyreactivity
QVQLVESGGGLVQAGGSLRLSCAASGITFRRNAMGWYRQAPGTERELVAGISGRGGSTYYADSVKGRFTISRDNAKNTVYLQMNSLKPEDTAVYYCAAVRFRTPTLEYWTRYDYWGQGTQVTVSS | high polyreactivity
QDQLVESGGGLVQAGGSLRLSCAASGSTSRTYAMGWYRQAPGKERELVAAINSGGTTYYADSVKGRFTISRDNAKNTVYLQMNSLKPEDTAVYYCARRDFWWSLRIFGYWGQGTQVTVSS | high polyreactivity
